The values below come from the RNAGym collection of RNA variant scans (doi:10.7554/elife.90254).

The chains are these.
B1: OR4K15 (parent)
chain: GUUAACGGUCAUAGGCCAUGGAAACUAGGAGCACCAUUUCGCUGCCAGUGAAGAAAUGAACAAAGAAAAUCUGGGCCAGGCAGGCAUCAAAAGAAAUAGUCUUGCGCUCAACCAGAAAGUCUGUAAUCAUUUUAAGGGUA

The variants in this data set derive from B1. The experiment in a line: self-cleavage, relative activity (ratio to wild type); higher = more cleavage; in vitro, sequencing; the parent is a self-cleaving ribozyme.
Take U38C A116U: the self-cleavage was 0.09.
The same measure for A55C A82G: 0.53; for A66U A129U: 0.61.
The same measure for A33U A60U: 1.68; for A23G A95G: 1.59; for A64G A66G: 1.39.
U120A U130C: the self-cleavage was determined as 1.78.
For the variant A89G A92G, the self-cleavage was 1.02.
The same measure for U2G U12C: 0.61; for A30G U132G: 0.69.
Under A63G G106U stands 0.02.
Under A47G G99A stands 0.4; under A62G U102A, 1.14.
For the variant C85G A135G, the self-cleavage was found to be 0.85.
For G41C A135G, the self-cleavage was 1.81.
In the case of A47C A110C, the self-cleavage stood at 0.46.
Consider A4G C85U, for which the self-cleavage was found to be 0.99.
C85G A110G: the self-cleavage was found to be 0.03.
As to G8A A18U, the self-cleavage worked out at 0.97.
Under A13G A126U stands 0.88.
The same measure for A82G A126G: 0.33.
On to G80A A95U, for which the self-cleavage was 0.17.
Under C85U U103C stands 0.34; under A62G U100A, 1.12; under A18U U127C, 0.91.
Take U9A U108C: the self-cleavage is 0.03.
Turning to U43A A91G, the self-cleavage was determined as 0.55.
Under A47G A90G stands 0.56; under G31C U70A, 0.94.
The same measure for G29U A33G: 1.58; for A67G A92G: 1.31.
For C76U G123A, the self-cleavage is 0.13.
For A11U A18U, the self-cleavage amounted to 1.82.
Regarding A66U U87C, the self-cleavage was determined as 0.42.
Under A33U A69G stands 1.71.
U103C A129U: the self-cleavage was 0.29.
The same measure for A59C: 1.66.
Under A33G A140G stands 1.26; under A66G A117U, 0.6; under U38G U127C, 1.37.
With A23G A52U, the self-cleavage stood at 1.69.
Under U39C C40U stands 1.54; under A86U A117G, 2.1; under A86U A125G, 0.95.
Turning to C16U A110U, the self-cleavage came out at 0.72.
Turning to A55G U122C, the self-cleavage was 1.2.
Regarding A27G A59U, the self-cleavage was determined as 1.24.
The same measure for U12C U43A: 0.93.
The same measure for U87A A91G: 1.33.
On to A23G A54U, for which the self-cleavage was 1.5.
In the case of A116G A118C, the self-cleavage was determined as 0.15.
As to G7C A11G, the self-cleavage came to 1.03.
The same measure for A96G U97A: 0.94.
For the variant G7U A66G, the self-cleavage amounted to 1.42.
The same measure for C85U U102C: 0.67.
Consider A27U, for which the self-cleavage amounted to 0.91.
The same measure for A36G A51U: 1.86; for G74U U97C: 0.22; for A33G G74U: 0.19.
The same measure for A30G U49C: 1.07.
Under A82G A140U stands 0.53; under U26C A52G, 1.82.
With A68G U72A, the self-cleavage worked out at 0.26.
For the variant A30C G75C, the self-cleavage is 0.12.
A54U U124A: the self-cleavage is 0.86.
Under U97C A111G stands 0.02; under A125G G138A, 0.47.
Take U38G A95G: the self-cleavage came out at 2.17.
As for A18G A64U, the self-cleavage worked out at 1.92.
As to A94G C101A, the self-cleavage is 0.3.
Consider A55G A91U, for which the self-cleavage is 2.07.
The same measure for A11U U103C: 0.73; for A134G A135U: 0.3.
In the case of U70C A117G, the self-cleavage stood at 1.21.
With A68U A140U, the self-cleavage came out at 1.65.
For the variant A82U U122C, the self-cleavage is 0.17.
Under A56G A60G stands 0.63; under U2C U120C, 0.43; under U70C C121U, 1.42.
As for U19G A114U, the self-cleavage is 0.1.
Under A60C A66G stands 0.72; under G21A U38G, 1.15.
On to A91G A140G, for which the self-cleavage was 1.21.
With G7A A55G, the self-cleavage is 1.39.
With U87G U132C, the self-cleavage amounted to 0.88.
Under A23G U108C stands 0.03; under A60C U122C, 1.62.
Under A18C U127C stands 0.63; under U39C G123A, 2.04; under U43C C105A, 0.02.
On to A22G A30G, for which the self-cleavage was 0.99.
The same measure for U2C A140G: 0.72.
With A56G A140G, the self-cleavage amounted to 1.78.
Under A64G U131A stands 0.6.
Under U100C U132C stands 2.14; under A47U A125G, 0.28; under A51U A116G, 0.37.
As for U97C G115U, the self-cleavage turned out to be 0.03.
Under U131C U139A stands 1.84; under U12A A78G, 0.2; under A91G U102A, 0.67.
The same measure for A30G U122C: 0.84.
The same measure for A64C A116G: 0.83; for A5G C40U: 1.31.
Take A22U A134G: the self-cleavage was found to be 1.35.
With A125U U132C, the self-cleavage was 1.97.
For U12G C105U, the self-cleavage is 0.22.
Under U103C A135U stands 1.34.
For U87C U97C, the self-cleavage was 1.63.
In the case of U12A A116G, the self-cleavage amounted to 0.49.
The same measure for A30U A68G: 1.62.
Consider A23U U122C, for which the self-cleavage amounted to 1.
Under U2G A92G stands 0.73; under C113U G136A, 0.18; under C10A A69G, 0.29.
With U38C A51U, the self-cleavage stood at 1.24.
The same measure for U3C U39G: 1.72; for A82G U97A: 0.92; for A95C A96G: 1.13.
Under A89G A95U stands 1.95; under A78G C105U, 0.03.
Consider A24U A55U, for which the self-cleavage turned out to be 0.93.
The same measure for A33G U37A: 1.02; for U2G A140G: 1.09.
In the case of U9A C34U, the self-cleavage came to 0.55.
Under A68G A129U stands 1.42; under U12C G28U, 0.66.
Regarding U70C U131A, the self-cleavage stood at 0.45.
Under A52C A126G stands 0.42.
As for G7A A90U, the self-cleavage came out at 2.31.
In the case of A22G U97C, the self-cleavage is 1.52.
Turning to U38A A90G, the self-cleavage worked out at 1.18.
In the case of U37C U97C, the self-cleavage came to 2.06.
In the case of G15C A111G, the self-cleavage stood at 0.01.
With A55G G136A, the self-cleavage stood at 1.36.
The same measure for G50A A64G: 1.22; for A51U U103C: 1.35.
The same measure for C17A U103C: 1.08; for U3C U120C: 1.42.
As for A27G A114U, the self-cleavage was 0.16.
Consider A22U U139A, for which the self-cleavage stood at 1.63.
As for A92G U122A, the self-cleavage worked out at 1.96.
The same measure for A11G A111C: 0.04.
As for A94G U120C, the self-cleavage was 1.02.
For the variant U12A A59U, the self-cleavage came out at 0.95.
Under G80C A96U stands 0.09; under G73A U127C, 0.11; under A5G A135U, 1.26.
Under C10U A78G stands 0.1; under U97C U122C, 1.21.
The same measure for U39C A82U: 0.22; for A64G U127C: 0.86.
As for G83A U131A, the self-cleavage is 0.94.
With A94G U130A, the self-cleavage was determined as 1.41.
The same measure for A94G U132C: 1.52; for U39A U122C: 1.39; for U38C U139C: 0.91.
Under C46U A52G stands 1.09.
Turning to U100C U139C, the self-cleavage stood at 2.29.
Under A24G A98G stands 0.51.
Under G15C U108C stands 0.03; under A23G A36U, 1.74.
The same measure for G74C U139C: 0.15; for A30G U102C: 1.21; for A118U U120C: 0.08.
Consider A24G U43A, for which the self-cleavage was found to be 1.29.
The same measure for U72C A140C: 0.44.
